In the Immune Epitope Database (IEDB):

Experiments:
HLA-A*03:01 [1] = test: IEDB peptide-MHC binding, purified MHC/competitive/fluorescence; ≥ and ≤ were set here for values at or beyond the usual limits of such assays
HLA-A*11:01 [2] = test: as above
HLA-A*01:01 [3] = test: IEDB peptide-MHC binding, purified MHC/competitive/fluorescence; filed as Kd, often an IC50 or EC50 that approximates it; ≥ and ≤ were set here for values at or beyond the usual limits of such assays
HLA-A*29:02 [4] = test: as above; conditions: source organism: Streptococcus pneumoniae D39
HLA-A*02:03 = test: IEDB peptide-MHC binding, purified MHC/direct/fluorescence; filed as Kd, often an IC50 or EC50 that approximates it; ≥ and ≤ were set here for values at or beyond the usual limits of such assays
HLA-A*02:11 = test: as above
HLA-A*02:12 = test: as above
HLA-A*02:16 = test: as above
HLA-A*02:19 = test: as above
HLA-A*03:01 [5] = test: as above
HLA-A*24:03 = test: as above
HLA-A*29:02 [6] = test: as above
HLA-A*68:02 = test: as above; conditions: source organism: Orthohantavirus sangassouense
HLA-B*07:02 = test: as above
HLA-A*02:01 [7] = test: IEDB peptide-MHC binding, purified MHC/competitive/fluorescence; filed as Kd, often an IC50 or EC50 that approximates it; ≥ and ≤ were set here for values at or beyond the usual limits of such assays; conditions: source organism: Kurkino virus
HLA-A*26:01 [8] = test: as above
HLA-A*69:01 [9] = test: as above
HLA-B*15:01 [10] = test: as above
HLA-B*15:17 = test: as above
HLA-B*18:01 = test: as above; conditions: source organism: Kurkino virus
HLA-B*27:03 = test: as above
HLA-B*39:01 [11] = test: as above; conditions: source organism: Kurkino virus
HLA-B*46:01 [12] = test: as above
HLA-B*51:01 = test: as above
HLA-B*57:01 [13] = test: as above
HLA-A*01:01 [14] = test: IEDB peptide-MHC binding, purified MHC/direct/fluorescence; filed as Kd, often an IC50 or EC50 that approximates it; ≥ and ≤ were set here for values at or beyond the usual limits of such assays
HLA-A*02:01 [15] = test: as above; conditions: source organism: Yersinia pestis
HLA-A*11:01 [16] = test: as above
HLA-A*26:01 [17] = test: as above; conditions: source organism: Yersinia pestis Nepal516
HLA-A*31:01 = test: as above
HLA-A*69:01 [18] = test: as above
HLA-B*08:01 [19] = test: as above; conditions: source organism: Yersinia pestis
HLA-B*15:01 [20] = test: as above
HLA-B*27:05 = test: as above
HLA-B*39:01 [21] = test: as above
HLA-B*40:01 = test: as above
HLA-B*44:02 = test: as above
HLA-B*58:01 = test: as above
HLA-A*02:01 [22] = test: IEDB peptide-MHC binding, purified MHC/competitive/fluorescence; ≥ and ≤ were set here for values at or beyond the usual limits of such assays
HLA-A*24:02 = test: as above
HLA-B*08:01 [23] = test: IEDB peptide-MHC binding, purified MHC/competitive/fluorescence; filed as Kd, often an IC50 or EC50 that approximates it; ≥ and ≤ were set here for values at or beyond the usual limits of such assays; conditions: source organism: Influenza A virus (A/Northern Territory/60/1968(H3N2))
HLA-B*46:01 [24] = test: IEDB peptide-MHC binding, purified MHC/direct/fluorescence; filed as Kd, often an IC50 or EC50 that approximates it; ≥ and ≤ were set here for values at or beyond the usual limits of such assays
HLA-B*57:01 [25] = test: as above
[26] = source organism: Vaccinia virus WR
[27] = source organism: Orthohantavirus sangassouense
[28] = source organism: Zaire ebolavirus
[29] = source organism: Yersinia pestis Nepal516
[30] = source organism: Yersinia pestis
[31] = source organism: Sudan ebolavirus
[32] = source organism: Mycobacterium tuberculosis
[33] = source organism: Vaccinia virus Copenhagen
[34] = source organism: Mycobacterium tuberculosis variant bovis
[35] = source organism: Orthohantavirus andesense

## ETLGYCMIR
HLA-A*03:01 [1]; [26]
  IC50: ≥ 248 µM
HLA-A*11:01 [2]; [26]
  IC50: 25.2 µM

## GVNFNLYYY
HLA-A*01:01 [3]; source organism: Streptococcus pneumoniae D39
  Kd: 0.021 µM
HLA-A*29:02 [4]
  Kd: ≤ 0.0001 µM

## SPGDNSAKF
HLA-A*02:03; [27]
  Kd: ≥ 20 µM
HLA-A*02:11; [27]
  Kd: ≥ 20 µM
HLA-A*02:12; [27]
  Kd: ≥ 20 µM
HLA-A*02:16; [27]
  Kd: ≥ 20 µM
HLA-A*02:19; [27]
  Kd: ≥ 20 µM
HLA-A*03:01 [5]; [27]
  Kd: ≥ 20 µM
HLA-A*24:03; [27]
  Kd: ≥ 20 µM
HLA-A*29:02 [6]; [27]
  Kd: ≥ 20 µM
HLA-A*68:02
  Kd: ≥ 20 µM
HLA-B*07:02; source organism: Tanganya virus
  Kd: 1.96 µM
HLA-A*02:01 [7]
  Kd: ≥ 20 µM
HLA-A*26:01 [8]; source organism: Kurkino virus
  Kd: ≥ 20 µM
HLA-A*69:01 [9]; source organism: Kurkino virus
  Kd: ≥ 20 µM
HLA-B*15:01 [10]; source organism: Kurkino virus
  Kd: ≥ 20 µM
HLA-B*15:17; source organism: Kurkino virus
  Kd: ≥ 20 µM
HLA-B*18:01
  Kd: ≥ 20 µM
HLA-B*27:03; source organism: Kurkino virus
  Kd: ≥ 20 µM
HLA-B*39:01 [11]
  Kd: ≥ 20 µM
HLA-B*46:01 [12]; source organism: Kurkino virus
  Kd: ≥ 20 µM
HLA-B*51:01; source organism: Kurkino virus
  Kd: ≥ 20 µM
HLA-B*57:01 [13]; source organism: Kurkino virus
  Kd: ≥ 20 µM

## TSPQSLTTK
HLA-A*03:01 [1]; [28]
  IC50: 22.3 µM
HLA-A*11:01 [2]; [28]
  IC50: 1.76 µM

## VLFGLGFAI
HLA-A*03:01 [1]; source organism: Mus musculus
  IC50: 12.6 µM

## QQSEARRML
HLA-A*01:01 [14]; [29]
  Kd: ≥ 20 µM
HLA-A*02:01 [15]
  Kd: 0.703 µM
HLA-A*03:01 [5]; [29]
  Kd: ≥ 20 µM
HLA-A*11:01 [16]; [29]
  Kd: ≥ 20 µM
HLA-A*26:01 [17]
  Kd: ≥ 20 µM
HLA-A*31:01; [29]
  Kd: ≥ 20 µM
HLA-A*69:01 [18]; [29]
  Kd: ≥ 20 µM
HLA-B*07:02; [30]
  Kd: 0.397 µM
HLA-B*08:01 [19]
  Kd: 6.41 µM
HLA-B*15:01 [20]; [30]
  Kd: 0.109 µM
HLA-B*27:05; [29]
  Kd: ≥ 20 µM
HLA-B*39:01 [21]; source organism: Yersinia pestis CA88-4125
  Kd: 2.09 µM
HLA-B*40:01; [29]
  Kd: ≥ 20 µM
HLA-B*44:02; [29]
  Kd: ≥ 20 µM
HLA-B*58:01; [29]
  Kd: ≥ 20 µM

## VSSGKNIKR
HLA-A*02:01 [22]; [28]
  IC50: ≥ 140 µM
HLA-A*03:01 [1]; [28]
  IC50: ≥ 82.2 µM
HLA-A*11:01 [2]; [28]
  IC50: 4.31 µM
HLA-A*24:02; [28]
  IC50: ≥ 163 µM

## FLQMENLMY
HLA-A*01:01 [3]; source organism: Bacillus anthracis str. A0488
  Kd: 0.0021 µM

## SNENGGPPL
HLA-B*39:01 [21]; source organism: Influenza A virus (A/Cameron/1946(H1N1))
  Kd: ≥ 20 µM

## LRRWGGTCR
HLA-A*02:01 [22]; [31]
  IC50: ≥ 645 µM
HLA-A*03:01 [1]; [31]
  IC50: ≥ 200 µM

## RLKTTENSF
HLA-B*08:01 [23]
  Kd: ≥ 20 µM

## FHSRFVQAL
HLA-A*01:01 [14]; [32]
  Kd: ≥ 20 µM
HLA-A*03:01 [5]; [32]
  Kd: ≥ 20 µM
HLA-A*11:01 [16]; [32]
  Kd: ≥ 20 µM
HLA-A*29:02 [6]; [32]
  Kd: ≥ 20 µM
HLA-A*31:01; [32]
  Kd: ≥ 20 µM
HLA-A*69:01 [18]; [32]
  Kd: ≥ 20 µM
HLA-B*07:02; [32]
  Kd: ≥ 20 µM
HLA-B*15:01 [20]; [32]
  Kd: ≥ 20 µM
HLA-B*27:05; [32]
  Kd: ≥ 20 µM
HLA-B*39:01 [21]; [32]
  Kd: 0.0399 µM
HLA-B*40:01; [32]
  Kd: ≥ 20 µM
HLA-B*44:02; [32]
  Kd: ≥ 20 µM
HLA-B*46:01 [24]; [32]
  Kd: ≥ 20 µM
HLA-B*57:01 [25]; [32]
  Kd: ≥ 20 µM
HLA-B*58:01; [32]
  Kd: ≥ 20 µM

## VYGNIKHKE
HLA-A*03:01 [1]; [33]
  IC50: ≥ 158 µM
HLA-A*11:01 [2]; [33]
  IC50: 69.1 µM
HLA-A*24:02; [33]
  IC50: 34.9 µM

## HQAIISDVL
HLA-A*01:01 [14]; [34]
  Kd: ≥ 20 µM
HLA-A*03:01 [5]; [34]
  Kd: ≥ 20 µM
HLA-A*29:02 [6]; [34]
  Kd: ≥ 20 µM
HLA-A*31:01; [34]
  Kd: ≥ 20 µM
HLA-A*69:01 [18]; [34]
  Kd: ≥ 20 µM
HLA-B*07:02; [34]
  Kd: ≥ 20 µM
HLA-B*27:05; [34]
  Kd: ≥ 20 µM
HLA-B*39:01 [21]; [34]
  Kd: 0.0424 µM
HLA-B*44:02; [34]
  Kd: ≥ 20 µM
HLA-B*46:01 [24]; [34]
  Kd: ≥ 20 µM
HLA-B*57:01 [25]; [34]
  Kd: ≥ 20 µM
HLA-B*58:01; [34]
  Kd: ≥ 20 µM

## IQNALEKAL
HLA-A*02:03; [35]
  Kd: ≥ 20 µM
HLA-A*02:11; [35]
  Kd: ≥ 20 µM
HLA-A*02:12; [35]
  Kd: ≥ 20 µM
HLA-A*02:16; [35]
  Kd: ≥ 20 µM
HLA-A*02:19; [35]
  Kd: ≥ 20 µM
HLA-A*03:01 [5]; [35]
  Kd: ≥ 20 µM
HLA-A*24:03; [35]
  Kd: ≥ 20 µM
HLA-A*29:02 [6]; [35]
  Kd: ≥ 20 µM
HLA-A*26:01 [8]; [35]
  Kd: ≥ 20 µM
HLA-A*69:01 [9]; [35]
  Kd: ≥ 20 µM
HLA-B*15:01 [10]; [35]
  Kd: 0.197 µM
HLA-B*15:17; [35]
  Kd: ≥ 20 µM
HLA-B*27:03; [35]
  Kd: ≥ 20 µM
HLA-B*46:01 [12]; [35]
  Kd: ≥ 20 µM
HLA-B*51:01; [35]
  Kd: ≥ 20 µM
HLA-B*57:01 [13]; [35]
  Kd: ≥ 20 µM

## QAFYTRVLK
HLA-A*03:01 [1]; [26]
  IC50: 1.47 µM
HLA-A*11:01 [2]; [26]
  IC50: 0.311 µM
